Test results published in patent US20110008375A1, “Uses of Myostatin Antagonists” (AMGEN INC., priority 2005, published 2011).
Substitutions are numbered along the chain they refer to.

T1: myostatin (Homo sapiens, UniProt O14793)
T1 construct: To produce mature myostatin, the pooled promyostatin was enzymatically cleaved between the propeptide and mature myostatin C terminal; made in house; host or cells: E. coli K-12 strain 2596 (ATCC # 202174)
T1 sequence (O14793 267-375): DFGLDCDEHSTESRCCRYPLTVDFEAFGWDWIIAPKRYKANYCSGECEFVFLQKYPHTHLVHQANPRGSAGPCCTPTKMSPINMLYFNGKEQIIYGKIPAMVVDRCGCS

B1: 2xmTN8-19-7 (protein)
chain: GGGGGAQLADHGQCIRWPWMCPPEGWELEGSGSATGGSGSTASSGSGSATGLADHGQCIRWPWMCPPEGWELE
modifications: Peptibody
B2: 2xmTN8-19-21 (protein)
chain: GGGGGAQSEYQGLCTRWPWMCPPQGWKLEGSGSATGGSGSTASSGSGSATGSEYQGLCTRWPWMCPPQGWKLE
modifications: Peptibody
B3: 2xmTN8-19-22 (protein)
chain: GGGGGAQTFSQGHCTRWPWMCPPQGWGLEGSGSATGGSGSTASSGSGSATGTFSQGHCTRWPWMCPPQGWGLE
modifications: Peptibody
B4: ActRIIB/Fc: soluble receptor fusion protein actRIIB/Fc (R&D Systems), recombinant human activin receptor IIB/Fc chimera (protein)
chain: SGRGEAETRECIYYNANWELERTNQSGLERCEGEQDKRLHCYASWRNSSGTIELVKKGCWLDDFNCYDRQECVATEENPQVYFCCCEGNFCNERFTHLPEAGGPEVTYEPPPTAPT
modifications: left off: a dimerising Fc or GST
B5: 2x mTN8-19-7: affinity matured 2× peptibody (two peptides in tandem), TN8-19 family, human Fc (protein)
chain: B1 chain
modifications: Peptibody
B6: 2x mTN8-19-33: affinity matured 2× peptibody of the TN8-19 family, human Fc (protein)
chain: B3 chain with T8P, F9E, T52P, F53E
modifications: Peptibody
B7: 2×mTN8-19-22: affinity matured 2× peptibody of the TN8-19 family, human Fc (protein)
chain: B3 chain

Molecular target: T1, myostatin
Assay: C2C12 pMARE-luc cell based myostatin activity assay
Settings: not given
Description: A myostatin-responsive reporter cell line was generated by transfection of C2C12 myoblast cells (ATCC No: CRL-1772) with a pMARE-luc construct. The pMARE-luc construct was made by cloning twelve repeats of the CAGA sequence, representing the myostatin/activin response elements (Dennler et al. EMBO 17: 3091-3100 (1998)) into a pLuc-MCS reporter vector (Stratagene cat #219087) upstream of the TATA box. The myoblast C2C12 cells naturally express myostatin/activin receptors on its cell surface. When myostatin binds the cell receptors, the Smad pathway is activated, and phosphorylated Smad binds to the response element (Macias-Silva et al. Cell 87:1215 (1996)), resulting in the expression of the lucerase gene. Luciferase activity is then measured using a commercial luciferase reporter assay kit (cat #E4550, Promega, Madison, Wis.) according to manufacturer's protocol. A stable line of C2C12 cells that had been transfected with pMARE-luc (C2C12/pMARE clone #44) was used to measure myostatin activity according to the following procedure.
Equal numbers of the reporter cells (C2C12/pMARE clone #44) were plated into 96 well cultures. A first round screening using two dilutions of peptibodies was performed with the myostatin concentration fixed at 4 nM. Recombinant mature myostatin was pre-incubated for 2 hours at room temperature with peptibodies at 40 nM and 400 nM respectively. The reporter cell culture was treated with the myostatin with or without peptibodies for six hours. Myostatin activity was measured by determining the luciferase activity in the treated cultures. This assay was used to initially identify peptibody hits that inhibited the myostatin signaling activity in the reporter assay. Subsequently, a nine point titration curve was generated with the myostatin concentration fixed at 4 nM. The myostatin was preincubated with each of the following nine concentrations of peptibodies: […], 0.4 nM, 4 nM, 20 nM, 40 nM, 200 nM, 400 nM, 2 uM and 4 uM for two hours before adding the mixture to the reporter cell culture. The IC50 values were for a number of exemplary peptibodies are provided in Tables III and for affinity matured peptibodies, in Table VIII.

inhibition of myostatin activity in cell-based assay	Molecule
inhibit myostatin activity	L2: peptibody: peptide MEMLDSLFELLKDMVPISKA fused to human IgG1 Fc

Same assay, conditions: affinity matured peptibodies; a range of values is given

IC50 [nM]	Molecule
980	mTN8-19-12 (SYWQGQCTRWPWMCPPQWRG)
354	mL15-9 (QIEMLESLLDLLRDMVPMSNAF)
16.7	mTN8-19-4 (MITQGQCTRWPWMCPPQPSG)
6.36	mTN8-19-29 (TLVQGHCTRWPWMCPPQRWV)
18.8 to 23	mTN8-19-9 (TQTHAQCTRWPWMCPPQWEG)
3.5 to 7.74	mTN8-19-5 (AGAQEHCTRWPWMCAPNDWI)
4.84 to 4.92	mTN8-19-27 (ADTQGHCTRWPWMCPPQHWF)
6.58	mTN8-19-23 (PGAHDHCTRWPWMCPPQSRY)
4.07 to 6.56	mTN8-19-14 (EFTQWHCTRWPWMCPPQRSQ)
28.7	mTN8-19-11 (IYPHDQCTRWPWMCPPQPYP)
4.65	mTN8-19-16 (YQTQGLCTRWPWMCPPQSQR)
4.39	mTN8-19-28 (SGPQGHCTRWPWMCAPQGWF)
7.51 to 34.4	mTN8-19-2 (YPEQGLCTRWPWMCPPQTLA)
123	mL20-2 (TQRDMSMLDGLLEVLDQLRQQR)
1.67 to 2.93	mTN8-19-24 (VAEEWHCRRWPWMCPPQDWR)
17.3	mTN8-19-6 (GVNQGQCTRWRWMCPPNGWE)
5.25 to 7.4	mTN8-19-10 (VVTQGHCTLWPWMCPPQRWR)
32.8	mL15-7 (QVDSLQQVLLWLEHKLALGPQV)
158	mL20-3 (TSRDMSLLWELLEELDRLGHQR)
5.03 to 5.07	mTN8-19-34 (IPAHGHCTRWPWMCPPQRWR)
160	mL20-4 (MQHDMSMLYGLVELLESLGHQI)
20	mTN8-19-13 (MWQQGHCTRWPWMCPPQGWG)
0.857 to 2.65	B1
0.828 to 1.43	B2
0.994 to 1.22	B3

Same assay, conditions: pMARE luc cell-based assay; Table III

IC50 [nM]	Molecule
~11	Linear-20: peptibody: peptide YREMSMLEGLLDVLERLQHY fused to human IgG1 Fc
~30	TN12-34: peptibody: peptide AHWCEQGPWRYGNICMAY fused to human IgG1 Fc

Molecular target: T1, myostatin
Assay: BIAcore affinity analysis on immobilized myostatin
Assay type: binding
Settings: Biacore assay; Table III
Description: An affinity analysis of each candidate myostatin peptibody was performed on a BIAcore®3000 (Biacore, Inc., Piscataway, N.J.), apparatus using sensor chip CM5, and 0.005 percent P20 surfactant (Biacore, Inc.) as running buffer.
Direct binding assays were used to screen and rank the peptibodies in order of their ability to bind to immobilized myostatin. Binding assays were carried by injection of two concentrations (40 and 400 nM) of each candidate myostatin-binding peptibody to the immobilized myostatin surface at a flow rate of 50 μl/min for 3 minutes. After a dissociation time of 3 minutes, the surface was regenerated. Binding curves were compared qualitatively for binding signal intensity, as well as for dissociation rates. Peptibody binding kinetic parameters including ka (association rate constant), kd (dissociation rate constant) and KD (dissociation equilibrium constant) were determined using the BIA evaluation 3.1 computer program (Biacore, Inc.). The lower the dissociation equilibrium constants (expressed in nM), the greater the affinity of the peptibody for myostatin.

Kd [nM]	Molecule
~7	B4

Test system: CD1 nu/nu mice
Assay: In vivo anabolic activity in CD1 nu/nu mouse model
Settings: CD1 nu/nu male mice; 1 and 3 mg/kg twice weekly, 35 days; 2× vs 1× peptibody or control
Description: The CD1 nu/nu mouse model (Charles River Laboratories, Massachusettes) was used to determine the in vivo efficacy of the peptibodies of the present invention which included the human Fc region (huFc). This model responded to the inhibitors of the present invention with a rapid anabolic response which was associated with increased dry muscle mass and an increase in myofibrillar proteins but was not associated with accumulation in body water content.
A group of 10 8 week old CD1 nu/nu mice were treated twice weekly or once weekly with dosages of 1 mg/kg, 3 mg/kg and 10 mg/kg (subcutaneous injection). The control group of 10 8 week old CD1 nu/nu mice received a twice weekly (subcutaneous) injection of huFc (vehicle) at 10 mg/kg. The animals were weighed every other day and lean body mass determined by NMR on day 0 and day 13. The animals are then sacrificed at day 14 and the size of the gastrocnemius muscle determined.
In another example, the 1×mTN8-19-32 peptibody was administered to CD1 nu/nu mice in a biweekly injection of 1 mg/kg, 3 mg/kg, 10 mg/kg, and 30 mg/kg compared with the huFc control (vehicle).
CD1 nu/nu male mice (10 animals per group) were treated with twice weekly injections of 1 mg/kg and 3 mg/kg of 1×mTN8-19-7 and 2×mTN8-19-7 for 35 days, while the control group (10 animals) received twice weekly injections of huFc (3 mg/kg).

Molecule	body weight gain (FIG. 5)	lean carcass weight at necropsy (FIG. 5)
B5	greater body weight gain	greater

Test system: C57B1/6 mice
Assay: Gripping strength in normal C57B1/6 mice
Assay type: in vivo, mouse
Settings: 30 days s.c. 5 mg/kg per week, measured day 18 of recovery
Description: The animals were allowed to recover without any further injections. Gripping strength was measured on day 18 of the recovery period. Griping strength was measured using a Columbia Instruments meter, model 1027 dsm (Columbus, Ohio).

Molecule	increase in gripping strength compared with control-treated mice [%]
B5	15
B6	14

Test system: not listed separately
Assay: In vivo pharmacokinetics in CD1 nu/nu mice
Design: species or system mouse
Settings: peptibodies without LE sequences, 10 mg/kg and 5 mg/kg
Description: In vivo pharmacokinetics experiments were performed using representative peptibodies without the LE sequences. 10 mg/kg and 5 mg/kg dosages were administered to CD1 nu/nu mice and the following parameters determined. Cmax (ug/mL), area under the curve (AUC) (ug-hr/mL), and half-life (hr).

Molecule	half-life
B5	about 106 hours
B7	about 85.2 hours
